The supplement of paper PMC9170038

System: MS2 coat protein
Experiment: apparent KD of MS2 coat protein; designed switch direction (-1 OFF switch, 1 ON switch): 1; higher = weaker reporter binding
In short: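 For each design, the apparent KD is the median over clusters of curves fitted to normalised cluster fluorescence. Clusters held RNA switches with common flanks, transcribed on Illumina chips by stalled E. coli RNA polymerase. These were titrated with SNAP-549-labelled MS2 coat protein, doubling from 0.7 or 1.5 nM to 3 µM, without input, with 200 uM small-molecule ligand, or with an oligonucleotide input.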

[1] = input ligand: microRNA oligo, concentration not stated
[2] = Eterna round: R95, input ligand: FMN 200 uM
[3] = Eterna round: R95, input ligand: microRNA oligo, concentration not stated
[4] = Eterna round: R95, input ligand: none

Sequence	apparent KD of MS2 coat protein (input ligand: FMN 200 uM) [nM]	apparent KD of MS2 coat protein [1] [nM]	apparent KD of MS2 coat protein (input ligand: none) [nM]	apparent KD of MS2 coat protein [2] [nM]	apparent KD of MS2 coat protein [3] [nM]	apparent KD of MS2 coat protein [4] [nM]
CUGAGCAGUCAAGGAUAUCACGUCGAUUAGACGUGAGAAGGUGAUCAUUACAUGAGGAUCACCCAUGUGUUACAUGGAGCUCAG [Brourd's SSNG1/1-A2 mod 5] (Eterna round: R96, puzzle: Same State NG 1)	413	49.1	358	–	–	–
CUGAGCGAUCAAGGAUAUCACGUCGUUUAGACGUGAGAAGGUGAUAAUUACAUGAGGAUCACCCAUGUAUAACAUGAAGCUCAG [SSNG1/9-A3] (Eterna round: R96, puzzle: Same State NG 1)	14	16.4	21	–	–	–
CUGUGUUGCGGGCAGGAUAUGUACUUGAGUACAUGAGGAUCACCCAUGUGCGGGUGUUUCACCCGACAGAAGGGCCUAUCGCGAC [JL-ss2-3.24 ViennaUCT mod] (puzzle: Same State 2)	–	–	–	140	395	329
CUUUCUCUUGCAGGAUAUCCUAGUCUUCGGUUAGGAGAAGGGCAAGGAAACUUGCUAAGCAAGUCUGUAACAGAGAUCCUUCCU [pwkr ssNG1 F9.2] (Eterna round: R96, puzzle: Same State NG 1)	124	78.2	164	–	–	–
CUUUUUCCUUUUACAUGAGGAUCACCCAUGUUUUCAUAUUGAGAGGAUAUCGUAUUUGGAAUUUUCGAGAAGGCUCAUUUGUAU [JR_SSNG3_Sub075] (Eterna round: R96, puzzle: Same State NG 3)	39.4	25.5	28.9	–	–	–
GAAAAGACAUGAGGAUCACCCAUGUGGUAGACAGCUAGACGCAAGGAUAUGCAUGUGAUUCUCAUGCAGAAGGUGCUUCUAGGU [Eternabot solution 12] (Eterna round: R96, puzzle: Same State NG 3)	37.6	53.3	68.6	–	–	–
GAAAAGCAGAGAGGAUAUGUCACUCAUGCCGUGACACAUGAGGAUCACCCAUGUUCAAUCCGGCCGCAGAAGGCUCCGCGAAAA [Eternabot solution 25] (Eterna round: R96, puzzle: Same State NG 2)	8.9	9.13	10.8	–	–	–
GAAUUUGAACUACAGGAUAUAUAGCAGAUGACAUGAGGAUCACCCAUGUAAGAGAAAGGAGGGAAAUAGAAGGGUAUGGGAGGUG [JR_SS2_Sub034] (puzzle: Same State 2)	–	–	–	34.5	32.9	37.7
GACAAUCUAUCUGAGGAUAUCAUGAUAAUAACAUGAGGAUCACCCAUGUGCAGGAAAACUGCAUAUGAGAAGGCAGAUAGAUUGA [Mat - Same State 2 - Mod - D14] (puzzle: Same State 2)	–	–	–	34.2	62.3	294
GACUGCGUUAUGAAGGAUAUCCGCGUCUGGACAUGAGGAUCACCCAUGUAUACUUGGAUCGUGCAGGAGAAGGUCAAGGGUGAUU [JR_SS002_Sub1210] (Eterna round: R96, puzzle: Same State 2)	507	163	243	–	–	–
GAGAGACGAUUAGGAUAUCCGGUGAUAAUGAUAGGAGAAGGAAUUGACAUGAGGAUCACCCAUGUGGGAAUAAUCCAGAGAGAG [Parity 24 - Jieux - Same State NG 1] (Eterna round: R96, puzzle: Same State NG 1)	86.5	66.5	89.7	–	–	–
GAGAGAGGGUGAGGAUAUUUAGUGAUAAUGAUAGGAGAAGGCACAGACAUGAGGAUCACCCAUGUGGGAAUAAUCCAGAGAGAG [Parity 9 - Jieux - Same State NG 1] (Eterna round: R96, puzzle: Same State NG 1)	199	31.9	186	–	–	–
GAGAGUGAAGUACAGGAUAUGAGGAGAGGAACAUGAGGAUCACCCAUGUGAAAUAGAGAGAAGAGUCAGAAGGGUAGGGAAGAGA [JR_SS2_Sub004] (puzzle: Same State 2)	–	–	–	32.8	31.4	23
GAGGGACAGACCAACAUGAGGAUCACCCAUGUCCUCGCAGGUCAGGAUAUCCGUCCAACAGGCAAGGAGAAGGGACGGUGAACC (Eterna round: R96, puzzle: Same State NG 3)	522	1200	724	–	–	–
GAGGGCGAAAGCAACAUGAGGAUCACCCAUGUCCUCGGAGGGCAGGAUAUCCGGCGGUAGCCGAAGGAGAAGGGUCGAAAAGAA [AK SSNG3-V2-34] (Eterna round: R96, puzzle: Same State NG 3)	34.8	292	61.1	–	–	–
